From patent US20240238445A1, “INHIBITORS AND USES THEREOF” (NEURACLE SCIENCE CO., LTD., priority 2021, published 2024)
Ends that are not written are not given here.

Experiments:
[1] = target: binding of FAM19A5 protein to full-length ectodomain of the LRRC4B protein (amino acids 36-576 of SEQ ID NO: 2) (Homo sapiens, UniProt Q7Z5A7); test: Competitive inhibition assay, plate coated with full-length ectodomain of LRRC4B (amino acids 36-576); conditions: for Inhibition rate (%) LRRC4B (amino acids 36-576)-hFc: Table 10, alanine/asparagine mutants; for inhibition of FAM19A5 binding to coated full-length LRRC4B ectodomain protein (in words): increasing concentrations, FAM19A5 5 ng/mL, 100 nM coat
Procedure: Next, to further assess the role that the binding domain of the LRRC4B protein has on the interaction between FAM19A5 protein and members of the LRRC4 protein family, a competitive inhibition assay was used to determine whether different LRRC4B deletion constructs from Example 2 could inhibit the binding of FAM19A5 to the full-length ectodomain of the LRRC4B protein (i.e., amino acids 36-576 of SEQ ID NO: 2; SEQ ID NO: 5). Briefly, 100 nM of the full-length ectodomain of the LRRC4B protein was used to coat a plate, and then recombinant FAM19A5 protein (5 ng/mL) was added to the plate in combination with the following LRRC4B deletion constructs (increasing concentrations): (1) LRRC4B (453-576) (i.e., construct #11 in Table 6); (2) LRRC4B (453-576) mutant (comprises alanine substitutions at positions 488 and 489 of SEQ ID NO: 2; SEQ ID NO: 16); (3) LRRC4B (484-576) (i.e., construct #12 in Table 6); (4) LRRC4B (482-576); (5) LRRC4B (482-497); and (6) LRRC4B (498-576). The plates were incubated at 37° C., and then, the amount of FAM19A5 bound to the coated LRRC4B ectodomain protein was measured using HRP-conjugated anti-FAM19A5 (1-65) antibody.
As described in Example 3, there appeared to be much similarity in the binding domains of the different members of the LRRC4 family. […] Then, recombinant FAM19A5 protein (5 ng/mL) was added in combination with one of the following: (i) LRRC4B (484-576) protein fragment, (ii) LRRC4B (453-576, AA) protein fragment, and (iii) synthetic FB-20 peptide. The plates were incubated at 37° C., and then, the amount of FAM19A5 protein bound to the coated LRRC4, LRRC4B, or LRRC4C proteins was measured using anti-FAM19A5 (1-65) antibody.
(§1) Next, to assess whether polypeptides comprising the binding domains of LRRC4 or LRRC4C proteins can have similar inhibitory effects on LRRC4B protein binding, the following synthetic peptides were constructed: (1) FBC4-23 (contains the binding domain of the LRRC4 protein, i.e., YSFFTTVTVETTE); and (2) FBC4C-23 (contains the binding domain of the LRRC4C protein, i.e., FSYFSTVTVETME). Then, the ability of the peptides to inhibit the binding of LRRC4 protein family members to FAM19A5 protein was assessed using a competitive inhibition assay. Briefly, plates were coated with 100 nM of either LRRC4B protein fragment #1 (amino acids 36-576 of SEQ ID NO: 2; SEQ ID NO: 5) or LRRC4B protein fragment #2 (amino acids 453-576 of SEQ ID NO: 2; SEQ ID NO: 7). Then, recombinant FAM19A5 protein (5 ng/ml for plates coated with LRRC4B fragment #1; and 1 ng/mL for plates coated with LRRC4B fragment #2) was added to the plates in combination with 20 nM of the FBC4-23, FBC4C-23, and FB-20 peptides. The plates were incubated at 37° C. and then, the amount of FAM19A5 protein bound to the coated LRRC4B protein fragments was assessed using HRP-conjugated anti-FAM19A5 (1-65) antibody.
Next, to determine the minimal sequence required to inhibit the interaction of FAM19A5 and members of the LRRC4 protein family, ten FB-20 peptide variants were constructed by serially deleting one or more amino acids from the N-terminus or C-terminus of the FB-20 peptide. Then, a competitive inhibition assay was used to assess the ability of the different FB-20 peptide variants to inhibit the interaction between FAM19A5 and LRRC4B protein. Again, plates were coated with 100 nM of either LRRC4B protein fragment #1 (amino acids 36-576 of SEQ ID NO: 2; SEQ ID NO: 5) or LRRC4B protein fragment #2 (amino acids 453-576 of SEQ ID NO: 2; SEQ ID NO: 7). Then, recombinant FAM19A5 protein (5 ng/ml for plates coated with LRRC4B fragment #1; and 1 ng/mL for plates coated with LRRC4B fragment #2) was added to the plates in combination with 20 nM of the different peptides described above. After incubating the plates at 37° C., the amount of FAM19A5 protein bound to the coated LRRC4B protein fragments was assessed using HRP-conjugated anti-FAM19A5 (1-65) antibody. […]

[2] = target: binding of FAM19A5 protein to LRRC4B (amino acids 453-576)-hFc (Homo sapiens, UniProt Q7Z5A7); test: Competitive inhibition assay, plate coated with LRRC4B (amino acids 453-576)-hFc, peptides at 20 nM; conditions: Table 10; alanine/asparagine mutants
Description: as §1
Next, to determine the minimal sequence required to inhibit the interaction of FAM19A5 and members of the LRRC4 protein family, ten FB-20 peptide variants were constructed by serially deleting one or more amino acids from the N-terminus or C-terminus of the FB-20 peptide. Then, a competitive inhibition assay was used to assess the ability of the different FB-20 peptide variants to inhibit the interaction between FAM19A5 and LRRC4B protein. Again, plates were coated with 100 nM of either LRRC4B protein fragment #1 (amino acids 36-576 of SEQ ID NO: 2; SEQ ID NO: 5) or LRRC4B protein fragment #2 (amino acids 453-576 of SEQ ID NO: 2; SEQ ID NO: 7). Then, recombinant FAM19A5 protein (5 ng/ml for plates coated with LRRC4B fragment #1; and 1 ng/mL for plates coated with LRRC4B fragment #2) was added to the plates in combination with 20 nM of the different peptides described above. After incubating the plates at 37° C., the amount of FAM19A5 protein bound to the coated LRRC4B protein fragments was assessed using HRP-conjugated anti-FAM19A5 (1-65) antibody.
To identify the critical amino acid residues, multiple FB-20 peptide mutants were constructed, in which the individual residues of the core binding domain (i.e., YTYFTTVTVETLE; SEQ ID NO: 15) were substituted with alanine (A) or asparagine (N). Then, the ability of these FB-20 peptide mutants to inhibit the interaction between LRRC4B and FAM19A5 proteins was assessed, as described in Examples 3 and 4.

Sequence of binding of FAM19A5 protein to full-length ectodomain of the LRRC4B protein (amino acids 36-576 of SEQ ID NO: 2) (Q7Z5A7 44-132): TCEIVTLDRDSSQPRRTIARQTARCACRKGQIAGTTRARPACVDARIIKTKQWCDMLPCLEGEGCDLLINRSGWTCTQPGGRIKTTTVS
Sequence of binding of FAM19A5 protein to LRRC4B (amino acids 453-576)-hFc (Q7Z5A7 44-132): as above

Row | Inhibition rate (%) LRRC4B (amino acids 36-576)-hFc [1] [%] | Inhibition rate (%) LRRC4B (amino acids 453-576)-hFc [2] [%] | inhibition of FAM19A5 binding to coated full-length LRRC4B ectodomain protein (in words) [1] | Molecule
1 | 17.2 | 3.6 | – | GATYFTTVTVETLETQPGEE [FB-20[A1]]
2 | 11.9 | 3.1 | – | GNTYFTTVTVETLETQPGEE [FB-20[N1]]
3 | 1.0 | −0.4 | – | GYAYFTTVTVETLETQPGEE [FB-20[A2]]
4 | −0.7 | −2.0 | – | GYNYFTTVTVETLETQPGEE [FB-20[N2]]
5 | 5.9 | 0.0 | – | GYTAFTTVTVETLETQPGEE [FB-20[A3]]
6 | −5.0 | 4.0 | – | GYTNFTTVTVETLETQPGEE [FB-20[N3]]
7 | 2.7 | 1.5 | – | GYTYATTVTVETLETQPGEE [FB-20[A4]]
8 | 53.4 | 22.2 | – | GYTYFATVTVETLETQPGEE [FB-20[A5]]
9 | 56.1 | 30.5 | – | GYTYFNTVTVETLETQPGEE [FB-20[N5]]
10 | 17.9 | 11.0 | – | GYTYFTAVTVETLETQPGEE [FB-20[A6]]
11 | −11.4 | −0.4 | – | GYTYFTNVTVETLETQPGEE [FB-20[N6]]
12 | 26.8 | 7.9 | – | GYTYFTTATVETLETQPGEE [FB-20[A7]]
13 | 24.5 | 8.3 | – | GYTYFTTNTVETLETQPGEE [FB-20[N7]]
14 | 3.9 | −0.4 | – | GYTYFTTVAVETLETQPGEE [FB-20[A8]]
15 | 2.9 | −2.4 | – | GYTYFTTVNVETLETQPGEE [FB-20[N8]]
16 | 21.5 | 3.8 | – | GYTYFTTVTAETLETQPGEE [FB-20[A9]]
17 | 17.5 | 6.5 | – | GYTYFTTVTNETLETQPGEE [FB-20[N9]]
18 | 19.6 | 6.4 | – | GYTYFTTVTVATLETQPGEE [FB-20[A10]]
19 | 73.4 | 50.3 | – | GYTYFTTVTVEALETQPGEE [FB-20[A11]]
20 | 74.1 | 55.6 | – | GYTYFTTVTVENLETQPGEE [FB-20[N11]]
21 | 73.0 | 56.2 | – | GYTYFTTVTVETAETQPGEE [FB-20[A12]]
22 | 51.4 | 27.2 | – | GYTYFTTVTVETLATQPGEE [FB-20[A13]]
23 | 27.0 | 10.8 | – | GYTYFTTVTVNTLETQPGEE [FB-20[N10]]
24 | – | – | also able to inhibit the interaction | LRRC4B (482-497): LRRC4B ectodomain fragment, amino acids 482-497 of SEQ ID NO: 2 (GGYTYFTTVTVETLET; also: dimerising Fc or GST fusion left off)
25 | – | – | also able to inhibit the interaction | LRRC4B (482-576): LRRC4B ectodomain fragment, amino acids 482-576 of SEQ ID NO: 2 (protein) GGYTYFTTVTVETLETQPGEEALQPRGTEKEPPGPTTDGVWGGGRPGDAAGPASSSTTAPAPRSSRPTEKAFTVPITDVTENALKDLDDVMKTTK
